Results: article PMC12171399
Values belong to the substance of their own block, whether it stands above or below them.

Columns and labels:
[1] = target: VEGF-A-HisTag refolded from inclusion bodies of BL21(DE3) (mouse); assay: SDS-PAGE under reducing and non-reducing conditions; purified protein; disulfide-linked homodimer told from monomer by comparing migration under reducing or non-reducing conditions; 5%-20% gradient gel; refolded samples after cation-exchange chromatography
[2] = target: non-tagged mature mouse VEGF-A (188 amino acids form), refolded from TAPS-VEGF-A (mouse); assay: as above
[3] = target: secreted form of VEGF-A-HisTag expressed in Expi293 cells (mouse) (UniProt Q00731); assay: SDS-PAGE; VEGF-A-HisTag from Expi293 culture media, purified on a heparin affinity column

stoichiometry N [1]: 2
Substance: VEGF-A-HisTag refolded from inclusion bodies of BL21(DE3) (ligand)

stoichiometry N [2]: 2
Substance: non-tagged mature mouse VEGF-A (188 amino acids form), refolded from TAPS-VEGF-A (ligand)

stoichiometry N [3]: 2
Substance: secreted form of VEGF-A-HisTag expressed in Expi293 cells (from UniProt Q00731 1-392) (ligand)
